One block for each binder: values may come before it.
B2: Anterior Gradient 2 (AGR2), endogenous protein from PDAC cell lysate (SU86.86) (ligand)
chain: RDTTVKPGAKKDTKDSRPKLPQTLSRGWGDQLIWTQTYEEALYKSKTSNKPLMIIHHLDECPHSQALKKVFAENKEIQKLAEQFVLLNLVYETTDKHLSPDGQYVPRIMFVDPSLTVRADITGRYSNRLYAYEPADTALLLDNMKKALKLLKTEL
notes: Endogenous AGR2 of human pancreatic cancer cell lysates, used in IP and western blot; also called hAG-2; Gob-4

Assays:
[1] = target: T1, AGR2 antigenic peptide (CIHHLDESPHSQALKKVFAENKEIQKLAEQ; SEQ ID NO: 3) (human); test: ELISA, antigenic peptide (0.5 ug) coated, probed with purified Ab (FIG. 11C)
T1 peptide: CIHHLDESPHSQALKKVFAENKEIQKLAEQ
Protocol: (§1) FIGS. 11A-D. Monoclonal antibodies developed bind respectively to AGR2 and C4.4A proteins and blocked their functions. From the endogenous lysate (SU86.86/Panc-1), AGR2 (18 kD) and C4.4A (50 kD) were identified by a panel of mAbs. […] Extra bands identified with the endogenous protein were re-confirmed with the recombinant protein. For apoptosis studies, AsPC-1 cells were treated without or with Gem (0.5 μM) and rAGR2 (100 nM) and with purified (A) AGR2 and (B) C4.4A Abs (1 μM). Commercially available Abs served as control. […] Horizontal line represents median apoptotic value. Data shown are mean±SE for 3 experiments (*p<0.05). (C,D) Binding assays were conducted with purified (C) AGR2 and (D) C4.4A Abs as selected from the apoptosis assay as having high blocking efficiency. ELISA assays were conducted by coating antigenic peptide (0.5 μg) and probed with respective purified Abs. Data shown are mean±SE for 3 experiments (*p <0.05). Based on high specificity and binding, clone 28B for AGR2 and 1A for C4.4A were selected. Purified Abs were also run on 4-20% gradient gel to check for the presence of heavy (50 kD) and light chains (25 kD).

[2] = target: B2; test: western blot (FIG. 5A)
[3] = target: T2, human recombinant AGR2 (rAGR2) (ab64013, AbCam) (human, UniProt O95994 21-175, limits assumed); test: western blot (FIG. 5A)
T2 construct: also called extracellular AGR2
T2 sequence: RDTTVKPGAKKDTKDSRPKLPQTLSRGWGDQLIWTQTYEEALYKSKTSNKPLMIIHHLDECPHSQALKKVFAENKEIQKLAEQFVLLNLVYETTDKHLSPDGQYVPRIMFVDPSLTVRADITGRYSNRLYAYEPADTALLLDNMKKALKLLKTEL

[4] = target: T3, C4.4A (LYPD3), endogenous protein of PDAC cells (human, UniProt O95274 31-326); test: co-immunoprecipitation from SU86.86 lysate with commercial anti-AGR2 antibody, western blot
T3 construct: On PDAC cells in the functional assays
T3 sequence: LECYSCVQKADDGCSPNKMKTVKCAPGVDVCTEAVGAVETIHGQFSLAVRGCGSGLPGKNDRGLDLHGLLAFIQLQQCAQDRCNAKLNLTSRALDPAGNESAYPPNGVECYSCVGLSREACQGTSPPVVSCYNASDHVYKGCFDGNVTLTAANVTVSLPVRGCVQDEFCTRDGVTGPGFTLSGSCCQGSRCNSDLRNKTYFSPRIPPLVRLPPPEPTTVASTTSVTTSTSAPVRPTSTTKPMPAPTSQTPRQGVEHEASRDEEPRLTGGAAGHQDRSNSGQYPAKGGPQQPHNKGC

[5] = target: T4, dystroglycan-1 (DAG-1) (UniProt Q14118 30-895, limits assumed); test: as above
T4 construct: Endogenous protein of a PDAC cell lysate; also called Dystoglycan-1
T4 sequence (looked up): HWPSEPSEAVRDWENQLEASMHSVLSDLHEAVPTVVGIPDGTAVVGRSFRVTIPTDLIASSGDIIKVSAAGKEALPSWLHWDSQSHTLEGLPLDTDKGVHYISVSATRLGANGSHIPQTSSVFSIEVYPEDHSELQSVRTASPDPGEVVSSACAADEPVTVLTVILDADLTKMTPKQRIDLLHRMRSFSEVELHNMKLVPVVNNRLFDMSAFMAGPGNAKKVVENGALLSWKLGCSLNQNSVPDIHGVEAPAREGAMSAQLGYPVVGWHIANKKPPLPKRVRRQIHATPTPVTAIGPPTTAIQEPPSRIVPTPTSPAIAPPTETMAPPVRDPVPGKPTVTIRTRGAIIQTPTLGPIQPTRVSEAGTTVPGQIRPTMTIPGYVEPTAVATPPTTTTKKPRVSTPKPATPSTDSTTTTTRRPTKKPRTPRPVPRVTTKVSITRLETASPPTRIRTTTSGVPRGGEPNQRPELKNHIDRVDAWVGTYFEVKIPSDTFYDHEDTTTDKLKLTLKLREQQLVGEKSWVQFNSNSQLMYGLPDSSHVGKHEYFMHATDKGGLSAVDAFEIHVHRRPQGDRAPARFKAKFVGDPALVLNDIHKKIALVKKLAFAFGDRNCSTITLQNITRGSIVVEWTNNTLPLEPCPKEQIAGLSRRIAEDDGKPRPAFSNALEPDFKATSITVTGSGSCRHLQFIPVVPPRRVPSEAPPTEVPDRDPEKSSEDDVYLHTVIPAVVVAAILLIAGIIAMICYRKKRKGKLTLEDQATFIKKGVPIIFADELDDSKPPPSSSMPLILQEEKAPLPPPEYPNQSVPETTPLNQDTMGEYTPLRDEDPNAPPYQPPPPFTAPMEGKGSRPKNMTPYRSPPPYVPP

[6] = target: T5, C4.4A antigenic peptide (CPVRPTSTTKPMPAPTSQTPRQGVEHEASRDEEPRL; SEQ ID NO: 4) (human); test: ELISA, antigenic peptide (0.5 ug) coated, probed with purified Ab (FIG. 11D)
T5 peptide: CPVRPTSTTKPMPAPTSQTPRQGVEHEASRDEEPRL
Protocol: as §1

[7] = target: T3, C4.4A (LYPD3), endogenous protein of …; test: western blot (FIG. 5A)

- binding result [1]: binds
- binding result [2]: binds
- binding result [3]: binds
B1: 163-28B-1 monoclonal antibody (antibody, V domains shown)
VH: QIQLVQSGPELKKPGETVKISCKASGYTFTNYGMNWVKQAPGKGLKWMGWINTDTGKPTYTEEFKGRFAFSLATSASTAYLQINNLRNEDTATYFCGRVTADSMDYWGQGTSVTVSS
VL: DVVMTQTPLSLPVSLGDQASISCRSSQSLVHSNGNIYLHWFLQKPGQSPKLLIYKVSNRFSGVPDRFSGSGSGTDFTLKISRVEAEDLGVYFCSQSTHVPLTFGAGTKLELK
notes: also called AGR2 mAb; clone 28B

Binder: B2
- binding result [4]: binds
- binding result [5]: no binding

- binding result [6]: binds
- binding result [7]: binds
B3: 162-1A-1 monoclonal antibody (antibody, V domains shown)
VH: EVMLVESGGGLVKPGGSLKLSCAASGFTFSSYTMSWVRQTPEKRLEWVASISSGGGNTYYADSVKGRFTMSRDNAKNNLYLQMSSLRSEDTALYYCARSYYYGISYDTYWGQGTLVTVSA
VL: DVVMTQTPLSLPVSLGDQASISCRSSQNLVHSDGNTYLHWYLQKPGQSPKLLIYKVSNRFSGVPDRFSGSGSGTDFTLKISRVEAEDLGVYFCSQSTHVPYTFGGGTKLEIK
notes: also called C4.4A mAb; clone 1A

From US20170283509A1 (University of Texas, published 2017)
